The values below come from US20230213527A1 (published 2023).

Holding throughout (experiment): fluorescence polarization
In general terms: Polarisation of emitted light reports the rotation of a fluorescent probe.

Assay [1] concerns the target labeled peptide with N-terminal isoleucine (X…-FITC, SEQ ID NO: 833, X = I) (C-terminal FITC label).
Assay [2] addresses T1, labeled peptide with N-terminal leucine (XAKLDEESILKQK-FITC, SEQ ID NO: 833, X = L).
T1 peptide: LAKLDEESILKQK-{FITC′}

The target of assay [3] is labeled peptide with N-terminal valine (X…-FITC, SEQ ID NO: 833, X = V) (C-terminal FITC label).

Primed or numbered codes have the meaning given here. Ends that are not written are not given here. FITC′ = not defined here

B1: PS961 (designed binder)
chain: MPTAASATESAIEDTPAPARPEVDGRTKPKRQPRYHVVLWDDDDHTYQYVVVMLRSLFGHPPSRGYRMAKEMDTQGRVIVLTTTREHAELKRDQIHAFGRDRLLARSKGSMKASIEAEE
For B1, the Kd – broadly, the constant that tells how readily two partners part at equilibrium – in assay [1] is 68 nM; in assay [2] it was 55 nM; in assay [3], 144 nM.
